Laboratory results from paper PMC7563181.

Key:
[1] = molecular target: membrane-bound GFP (pHR_EGFPligand)
[2] = molecular target: membrane-bound GFP (pHR_EGFPligand); remark: listed apart in the source
[3] = molecular target: membrane-bound GFP (pHR_EGFPligand); remark: listed apart in the source
[4] = molecular target: membrane-bound GFP (pHR_EGFPligand); remark: listed apart in the source
[5] = molecular target: membrane-bound GFP (pHR_EGFPligand); remark: listed apart in the source
[6] = molecular target: membrane-bound GFP (pHR_EGFPligand); remark: listed apart in the source
[7] = molecular target: membrane-bound GFP (pHR_EGFPligand); remark: listed apart in the source

LaG17_synNotch_TetRVP64 (synNotch receptor against GFP with a tTA intracellular domain)
% dsRed-Express-positive receiver cells after co-culture with antigen-expressing sender cells at three sender-receiver ratios (5:1, 1:1, 1:5), flow cytometry after 48 h; 7.6% to 40.1% [1]: 40.1% | synNotch-mediated fluorophore expression, bulk population before clonal expansion (differs from Table 2) [2]: 34.8% | synNotch-mediated fluorophore expression, clonal cell line (differs from Table 2) [2]: 73.6% | % Activation in Bulk Population (dsRed-Express, 60 min, sender:receiver 1:1) [3]: 31.3% | % Activation in Clonal Cell Lines (dsRed-Express, 60 min, sender:receiver 1:1) [3]: 73.5% | % dsRed-Express-positive receiver cells after 10, 30, 60, 120 and 180 min of contact with antigen-expressing sender cells (ratio 1:1), flow cytometry 48 h later; 7.3% to 37.3% [4]: 37.3% | % dsRed-Express-positive cells at the first sort of the transduced bulk receiver population after activation with antigen-expressing cells (flow cytometry) [5]: 10.3% | Indel formation frequency at the CXCR4 locus (TIDE) after activation by GFP sender cells, receiver cells kept in low FBS (G1 arrest) [6]: 37.4% | Indel formation frequency at the CXCR4 locus (TIDE) after activation by GFP sender cells, receiver cells kept without FBS (G1 arrest) [6]: 31.4% | Indel formation frequency at the CXCR4 locus (TIDE) after activation by GFP sender cells, receiver cells treated with nocodazole (G2/M arrest) [6]: 34.4% | Overall efficiency of indel formation at the CXCR4 locus (TIDE) after activation of receiver cells by GFP sender cells (1:1, 60 min), Experiment 1 [7]: 34.5% | Overall efficiency of indel formation at the CXCR4 locus (TIDE) after activation of receiver cells by GFP sender cells (1:1, 60 min), Experiment 2 [7]: 41.3% | Overall efficiency of indel formation at the CXCR4 locus (TIDE) after activation of receiver cells by GFP sender cells (1:1, 60 min), Experiment 3 [7]: 45.4%
